# Results reported in patent US9539367B2, “Gallium inhibits biofilm formation” (priority 2003, dated 2017).
# B1: lactoferrin: Fe-binding protein (protein, UniProt P02788 20-710, looked up)
# Lactotransferrin: GRRRSVQWCAVSQPEATKCFQWQRNMRKVRGPPVSCIKRDSPIQCIQAIAENRADAVTLDGGFIYEAGLAPYKLRPVAAEVYGTERQPRTHYYAVAVVKKGGSFQLNELQGLKSCHTGLRRTAGWNVPIGTLRPFLNWTGPPEPIEAAVARFFSASCVPGADKGQFPNLCRLCAGTGENKCAFSSQEPYFSYSGAFKCLRDGAGDVAFIRESTVFEDLSDEAERDEYELLCPDNTRKPVDKFKDCHLARVPSHAVVARSVNGKEDAIWNLLRQAQEKFGKDKSPKFQLFGSPSGQKDLLFKDSAIGFSRVPPRIDSGLYLGSGYFTAIQNLRKSEEEVAARRARVVWCAVGEQELRKCNQWSGLSEGSVTCSSASTTEDCIALVLKGEADAMSLDGGYVYTAGKCGLVPVLAENYKSQQSSDPDPNCVDRPVEGYLAVAVVRRSDTSLTWNSVKGKKSCHTAVDRTAGWNIPMGLLFNQTGSCKFDEYFSQSCAPGSDPRSNLCALCIGDEQGENKCVPNSNERYYGYTGAFRCLAENAGDVAFVKDVTVLQNTDGNNNEAWAKDLKLADFALLCLDGKRKPVTEARSCHLAMAPNHAVVSRMDKVERLKQVLLHQQAKFGRNGSDCPDKFCLFQSETKNLLFNDNTECLARLHGKTTYEKYLGPQYVAGITNLKKCSTSPLLEACEFLRK
# B2: conalbumin: Fe chelator (protein, UniProt P02789 20-705, looked up)
# Ovotransferrin: APPKSVIRWCTISSPEEKKCNNLRDLTQQERISLTCVQKATYLDCIKAIANNEADAISLDGGQAFEAGLAPYKLKPIAAEVYEHTEGSTTSYYAVAVVKKGTEFTVNDLQGKTSCHTGLGRSAGWNIPIGTLLHRGAIEWEGIESGSVEQAVAKFFSASCVPGATIEQKLCRQCKGDPKTKCARNAPYSGYSGAFHCLKDGKGDVAFVKHTTVNENAPDQKDEYELLCLDGSRQPVDNYKTCNWARVAAHAVVARDDNKVEDIWSFLSKAQSDFGVDTKSDFHLFGPPGKKDPVLKDLLFKDSAIMLKRVPSLMDSQLYLGFEYYSAIQSMRKDQLTPSPRENRIQWCAVGKDEKSKCDRWSVVSNGDVECTVVDETKDCIIKIMKGEADAVALDGGLVYTAGVCGLVPVMAERYDDESQCSKTDERPASYFAVAVARKDSNVNWNNLKGKKSCHTAVGRTAGWVIPMGLIHNRTGTCNFDEYFSEGCAPGSPPNSRLCQLCQGSGGIPPEKCVASSHEKYFGYTGALRCLVEKGDVAFIQHSTVEENTGGKNKADWAKNLQMDDFELLCTDGRRANVMDYRECNLAEVPTHAVVVRPEKANKIRDLLERQEKRFGVNGSEKSKFMMFESQNKDLLFKDLTKCLFKVREGTTYKEFLGDKFYTVISSLKTCNPSDILQMCSFLEGK
# System: P. aeruginosa biofilm
# Assay: Biofilm formation of GFP-labeled P. aeruginosa in continuous culture flow cells
# Type: cell-based
# Settings: for effect on P. aeruginosa biofilm formation: Fe chelation, concentrations that did not alter growth (lactoferrin 20 μg ml)
Molecule,effect on P. aeruginosa biofilm formation,effect on established biofilm (once the biofilm was established)
B1,profoundly inhibited biofilm formation,unable to alter the biofilm
B2,duplicated,–
